Test results reported in patent US20240382604A1 (GUANGZHOU MEDICAL UNIVERSITY, published 2024).
No end group written: not given here.

Biological target: papain-like protease (PLpro), enzyme used in the in vitro enzyme assay (SARS-CoV-2, UniProt P0DTD1 1564-1878, limits assumed)
Test: cell-based or functional assay

SRLRGG-GRL0617 [peptide-drug conjugate RG-17 (polypeptide SRLRGG linked with GRL0617)]
IC50, inhibition of PLpro activity in the in vitro enzyme assay (hydrolysis of substrate RLRGG-AMC, AMC fluorescence): 1.4 µM
